Assays:
Experiment in all cases: cell-based or functional assay
[1] = target: S protein of SARS-CoV-2 alpha strain 2 (Accession ID EPI_ISL_804007; on infectious virus) (SARS-CoV-2, UniProt P0DTC2 14-1273)
[2] = target: S protein of SARS-CoV-2 delta strain JPN/TKYTK1734/2021 (on infectious virus) (SARS-CoV-2, UniProt P0DTC2 14-1273)
[3] = target: S protein of SARS-CoV-2 alpha strain 1 (JPN/QK002/2020, Accession ID EPI_ISL_768526; on infectious virus) (SARS-CoV-2, UniProt P0DTC2 14-1273)

Measured: 中和活性 IC50 (inhibition of infection of VeroE6/TMPRSS2 cells)

B1: EV053273 (antibody, V domains shown)
VH: QVQLVQSGAEVKEPGTSVKVSCKASGYIFTGYYIHWVRQAPGQGLEWMGWINPNSGGRNYTQKFQGRVTMTRDKSISTVYMELSGLRSDDTAIYYCARDNSWSTVQFCLDYWGQGTLVTVSS
VL: QSALTQPPSASGSPGQSVTISCTGTSSDVGSYNYVSWYQQYPGKAPKLMIYEVSKRPSGVPDRFSGSKSGNTASLTVSGLQAEDEADYYCSSYGGSNNLVFGGGTKLTVLG
≤ 10 ng/mL: all assays above
